Results published in patent US20030186281A1, “Modified tetracycline repressor protein compositions and methods of use” (priority 2001, published 2003).
Numbering of substitutions follows the chain as printed. In names and notes the source's numbering stands.

B1: TetRrevAD3/10: revTetR(BD) N18Y G24G L51L D53Y A54V (protein)
chain: MSRLDKSKVINSALELLYEVGIEGLTTRKLAQKLGVEQPTLYWHVKNKRALLYVLAVEILARHHDYSLPAAGESWQSFLRNNAMSFRRALLRYRDGAKVHLGTRPDEKQYDTVETQLRFMTENGFSLRDGLYAISAVSHFTLGAVLEQQEHTAALTDRPAAPDENLPPLLREALQIMDSDDGEQAFLHGLESLIRGFEVQLTALLQIV
modifications: Modified tetracycline repressor
notes: revTetR(BD) N18Y G24G L51L D53Y A54V
B2: TetRrevAD2/1: revTetR(BD) G21G L51L D53Y L55L A56P A61E (protein)
chain: B1 chain with Y18N, E19G, V54A, A56P, A61E
modifications: Modified tetracycline repressor
notes: revTetR(BD) G21G L51L D53Y L55L A56P A61E
B3: TetRrevAF5/1: revTetR(BD) L14F D95A V99G (protein)
chain: B1 chain with L14F, Y18N, Y53D, V54A, D95A, V99G
modifications: Modified tetracycline repressor
notes: revTetR(BD) L14F D95A V99G
B4: TetRrevAF6/1: revTetR(BD) A13A E19V V20A D95I G96G (protein)
chain: B1 chain with Y18N, E19V, V20A, Y53D, V54A, D95I
modifications: Modified tetracycline repressor
notes: revTetR(BD) A13A E19V V20A D95I G96G
B5: TetRrevAtc4-13: revTetR(BD) E58N I59T L60F H63Y (protein)
chain: B1 chain with Y18N, Y53D, V54A, E58N, I59T, L60F, H63Y
modifications: Modified tetracycline repressor
notes: revTetR(BD) E58N I59T L60F H63Y
B6: TetRrevAF4/4: revTetR(BD) G24A R94P D95E G102D (protein)
chain: B1 chain with Y18N, G24A, Y53D, V54A, R94P, D95E, G102D
modifications: Modified tetracycline repressor
notes: revTetR(BD) G24A R94P D95E G102D
B7: TetRrevAF3/8: revTetR(BD) E15V L16L N18H E19D V20D R94P D95H H100N (protein)
chain: B1 chain with E15V, Y18H, E19D, V20D, Y53D, V54A, R94P, D95H, H100N
modifications: Modified tetracycline repressor
notes: revTetR(BD) E15V L16L N18H E19D V20D R94P D95H H100N
B8: TetRrevAF4/6: revTetR(BD) E15D L17I N18T E23G A54V D95A (protein)
chain: B1 chain with E15D, L17I, Y18T, E23G, Y53D, D95A
modifications: Modified tetracycline repressor
notes: revTetR(BD) E15D L17I N18T E23G A54V D95A
B9: TetRrev96/99-1: revTetR(BD) G96H V99R (protein)
chain: B1 chain with Y18N, Y53D, V54A, G96H, V99R
modifications: Modified tetracycline repressor
notes: revTetR(BD) G96H V99R
B10: TetRrevAF3/6: revTetR(BD) E23K D95H L101H (protein)
chain: B1 chain with Y18N, E23K, Y53D, V54A, D95H, L101H
modifications: Modified tetracycline repressor
notes: revTetR(BD) E23K D95H L101H
B11: TetRrevAF5/5: revTetR(BD) L14V L17F V20A I22M L25F D95H (protein)
chain: B1 chain with L14V, L17F, Y18N, V20A, I22M, L25F, Y53D, V54A, D95H
modifications: Modified tetracycline repressor
notes: revTetR(BD) L14V L17F V20A I22M L25F D95H
B12: TetRrevAF5/13: revTetR(BD) L14L V20G V99E (protein)
chain: B1 chain with Y18N, V20G, Y53D, V54A, V99E
modifications: Modified tetracycline repressor
notes: revTetR(BD) L14L V20G V99E
B13: TetRrevAtc4-14: revTetR(BD) L51L D53Q V57V E58K L60L A61V R62P H63D (protein)
chain: B1 chain with Y18N, Y53Q, V54A, E58K, A61V, R62P, H63D
modifications: Modified tetracycline repressor
notes: revTetR(BD) L51L D53Q V57V E58K L60L A61V R62P H63D
B14: TetRrevAF4/5: revTetR(BD) E15G L16L D95A V99G (protein)
chain: B1 chain with E15G, Y18N, Y53D, V54A, D95A, V99G
modifications: Modified tetracycline repressor
notes: revTetR(BD) E15G L16L D95A V99G
B15: TetRrevAF6/5: revTetR(BD) V20V I22V E23D D95N H100P (protein)
chain: B1 chain with Y18N, I22V, E23D, Y53D, V54A, D95N, H100P
modifications: Modified tetracycline repressor
notes: revTetR(BD) V20V I22V E23D D95N H100P
B16: TetRrevAD2/8: revTetR(BD) V20G D53N A54A A56G V57L I59F L60L R62R (protein)
chain: B1 chain with Y18N, V20G, Y53N, V54A, A56G, V57L, I59F, L60F
modifications: Modified tetracycline repressor
notes: revTetR(BD) V20G D53N A54A A56G V57L I59F L60L R62R
B17: TetRrevAF5/3: revTetR(BD) E15G N18K R94H G96G G102V (protein)
chain: B1 chain with E15G, Y18K, Y53D, V54A, R94H, G102V
modifications: Modified tetracycline repressor
notes: revTetR(BD) E15G N18K R94H G96G G102V
B18: TetRrevAF4/9: revTetR(BD) L16R E19D E23D D95G V99A G102G (protein)
chain: B1 chain with L16R, Y18N, E19D, E23D, Y53D, V54A, D95G, V99A
modifications: Modified tetracycline repressor
notes: revTetR(BD) L16R E19D E23D D95G V99A G102G
B19: TetRrevAD2/5: revTetR(BD) L17F L55L L60F R62V (protein)
chain: B1 chain with L17F, Y18N, Y53D, V54A, L60F, R62V
modifications: Modified tetracycline repressor
notes: revTetR(BD) L17F L55L L60F R62V
B20: TetRrevAF4/13: revTetR(BD) A13A E15D L17L E19V I22I E23K R94H G95N (protein)
chain: B1 chain with E15D, Y18N, E19V, E23K, Y53D, V54A, R94H, D95N
modifications: Modified tetracycline repressor
notes: revTetR(BD) A13A E15D L17L E19V I22I E23K R94H G95N

Each molecule was assayed on tet operator sequence (assay: β-galactosidase activity of a tetracycline-regulated promoter in transformed E. coli with revTetR, in the presence and absence of anhydrotetracycline (atc)). Conditions: RevTetR isolate cultured in the absence of anhydrotetracycline (ATC).
Assay type: cell-based, Escherichia coli
Procedure: The relative activity of revTetR repressors was determined at 28° C. and 37° C. for each clone by measuring β-galactosidase activity of a tetracycline-regulated promoter in transformed Escherichia coli in the presence and absence of the tetracycline analog, anhydrotetracycline (atc). The relative β-galactosidase activity was measured in standard Miller units and is presented as the percent of maximal expression as measured in the absence of Tet repressor. […] With respect to each mutant, as well as the wild-type controls, FIG. 2 provides two horizontal bars; the upper horizontal bar represents the level of β-galactosidase activity in the absence of anhydrotetracycline (−atc) while the lower horizontal bar represents the level of β-galactosidase activity in the presence of anhydrotetracycline (+atc).
The pool of mutated Tet repressors was cloned into plasmid pWH1411 (Baumeister et al., 1992, Proteins: Struct. Funct. Genet. 14: 168-77), which carries a TetR(B) gene, to provide a TetR(BD) chimera that included, as the amino-terminal portion, amino acid residues 1 to 50 of the TetR(B) gene and, as the carboxyl-terminal portion, amino acid residues 51 to 208 of the TetR(D) gene. The resulting plasmid pool was screened in a genetic assay which positively selects for a functional interaction between a Tet repressor and its cognate operator using E. coli strain WH207(λWH25) (the construction of this strain is described in detail in Wissmann et al., (1991) Genetics 128: 225-32). In this E. coli strain, tet operators direct the expression of divergently arranged β-galactosidase (lacZ) and Lac repressor (lacI) genes and the lac regulatory region directs the expression of a galactokinase (galK) gene on plasmid pWH414. Binding of Tet repressors to tet operators turns off transcription of the lacI and lacZ genes. The absence of Lac repressor allows for expression of the galK gene, which enables the E. coli strain to use galactose as a sole carbon source, which serves as one marker. The lacZ^− phenotype serves as a second marker. Thus, bacteria containing Tet repressors which bind to tet operators, have a Gal^+, lacZ^− phenotype. Bacteria containing wild-type Tet repressors have a Gal^+, lacZ^− phenotype in the absence of tetracycline. Modified “reverse” Tet repressors (revTetR) were selected based upon a Gal^+, lacZ^− phenotype in the presence of tetracycline.
The ability of each revTetR clone to bind to its cognate tet operator sequence and regulate transcription in a prokaryotic organism, Escherichia coli, in the presence and absence of a tetracycline analog (anhydrotetracycline, atc) was determined (Table 3, FIG. 2). The relative ratios of non-repressed to repressed levels of transcription for the 15 clones range from about 1.4-fold to about 50-fold at 28° C. and from about 1.3-fold to 40-fold at 37° C. For example, clone 4b comprising an amino acid substitution of glutamic acid for glycine at position 96 (e.g., SEQ ID NO. 24) repressed transcription 19-fold at 37° C. but to a less extent at 28° C. (5.7-fold, Table 3). Furthermore, clones 14, 5a and 7 comprising the arginine for glycine substitution at position 96 and further comprising a substitution or substitutions of serine for threonine at position 103 and valine for glutamic acid at position 114; leucine for proline at position 159; or glutamine to histidine at position 188, respectively, have pronouncedly different activities.
wherein each underlined base was present in approximately 85% of the oligonucleotides, while the remaining approximately 15% of the oligonucleotides contained one of the other three, non-wild type bases at that position. Similar mutagenic, partially randomized oligonucleotides were prepared for mutagenesis of the coding regions for amino acids 14-25 and 93-102. It was predicted that, according to a binomial distribution, each oligonucleotide would contain three to four mutations. […]

Compared with B1, B2 is lower in “β-Galactosidase Activity, Cultured Without ATC” value: 89.1669 for the first, 34.2242 for the second.

Compared with B3, B4 is lower in “β-Galactosidase Activity, Cultured Without ATC” value: 100.053 for the first, 72.8186 for the second.

First: B5
Second: B6
The “β-Galactosidase Activity, Cultured Without ATC” value of the first is higher: 98.8175 for the first, 94.4528 for the second.

Going from B7 to B8, the “β-Galactosidase Activity, Cultured Without ATC” value rises from 95.5476 to 100.702.

First: B9
Second: B10
The “β-Galactosidase Activity, Cultured Without ATC” value of the first is lower: 58.4545 for the first, 77.2272 for the second.

Going from B11 to B12, the “β-Galactosidase Activity, Cultured Without ATC” value rises from 100.546 to 105.942.

First: B13
Second: B14
The “β-Galactosidase Activity, Cultured Without ATC” value of the first is lower: 62.985 for the first, 105.33 for the second.

Going from B15 to B16, the “β-Galactosidase Activity, Cultured Without ATC” value falls from 102.848 to 73.8584.

Going from B17 to B18, the “β-Galactosidase Activity, Cultured Without ATC” value rises from 58.5651 to 110.616.

First: B19
Second: B20
The “β-Galactosidase Activity, Cultured Without ATC” value of the first is lower: 50.466 for the first, 98.8886 for the second.

Same assay, conditions: RevTetR isolate cultured in the presence of anhydrotetracycline (ATC)

Compared with B1, B2 is lower in “β-Galactosidase Activity, Cultured With ATC” value: 3.5004 for the first, 1.17 for the second.

Compared with B3, B4 is higher in “β-Galactosidase Activity, Cultured With ATC” value: 1.072 for the first, 3.7966 for the second.

Going from B5 to B6, the “β-Galactosidase Activity, Cultured With ATC” value falls from 8.1397 to 3.8273.

Going from B7 to B8, the “β-Galactosidase Activity, Cultured With ATC” value rises from 2.7257 to 3.7257.

Compared with B9, B10 is lower in “β-Galactosidase Activity, Cultured With ATC” value: 25.484 for the first, 1.0546 for the second.

Going from B11 to B12, the “β-Galactosidase Activity, Cultured With ATC” value rises from 1.6948 to 4.4642.

Going from B13 to B14, the “β-Galactosidase Activity, Cultured With ATC” value falls from 25.025 to 0.9927.

Compared with B15, B16 is lower in “β-Galactosidase Activity, Cultured With ATC” value: 2.8572 for the first, 1.8468 for the second.

First: B17
Second: B18
The “β-Galactosidase Activity, Cultured With ATC” value of the first is higher: 1.8337 for the first, 1.3761 for the second.

First: B19
Second: B20
The “β-Galactosidase Activity, Cultured With ATC” value of the first is lower: 1.4141 for the first, 2.5827 for the second.
